# Experimental data as given in patent US20120316071A1 (published 2012).
# Residue numbers refer to the chain shown, from its start. Names and notes keep the numbering of the source.
# T1: rHuman Erythropoietin R/Fc Chimera, CF (R&D Systems Cat#963-ER) (human, UniProt P19235 25-250)
# T1 construct: Bought recombinant protein; also called EPO R; EPO R/Fc; Fc part of the bought chimera not given
# T1 sequence (looked up): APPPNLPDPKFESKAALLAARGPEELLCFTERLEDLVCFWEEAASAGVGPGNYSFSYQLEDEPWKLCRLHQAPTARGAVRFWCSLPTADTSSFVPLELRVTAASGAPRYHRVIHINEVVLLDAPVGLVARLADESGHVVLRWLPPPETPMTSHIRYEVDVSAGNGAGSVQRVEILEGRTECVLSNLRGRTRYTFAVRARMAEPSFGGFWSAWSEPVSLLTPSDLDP
# B1: Fab VH5-51_IGHD5-18*01>3_IGHJ4*01 G100K/G104T/G24T/S28R/G35V (KT TRV) & V3-4_IGLJ1*01 (Fab, V domains shown)
# VH: EVQLVQSGAEVKKPGESLKISCKTSGYRFTSYWIVWVRQMPGKGLEWMGIIYPGDSDTRYSPSFQGQVTISADKSISTAYLQWSSLKASDTAMYYCARRKYSYTYDYFDYWGQGTLVTVSS
# VL: QTVVTQEPSFSVSPGGTVTLTCGLSSGSVSTSYYPSWYQQTPGQAPRTLIYSTNTRSSGVPDRFSGSILGNKAALTITGAQADDESDYYCVLYMGSGISYVFGTGTKVTVL
# notes: Fab; also called H:KT TRV & L:wt; H:KT TRV & V3-4_IGLJ1*01
# B2: Fab VH5-51_IGHD5-18*01>3_IGHJ4*01 G100K/G104T G24T/S28R/G35V (H:KT TRV) & V3-4_IGLJ1*01 V91L/S96P S52G (L:LP S52G) (Fab, V domains shown)
# VH: B1 VH
# VL: B1 VL with S52G, V91L, S96P
# notes: Fab; also called H:KT TRV & L:LP S52G
# B3: Fab VH5-51_IGHD5-18*01>3_IGHJ4*01 G100K/G104T G24T/S28R/G35V (H:KT TRV) & V3-4_IGLJ1*01 V91L/S96P (L:LP) (Fab, V domains shown)
# VH: B1 VH
# VL: B1 VL with V91L, S96P
# notes: Fab; also called H:KT TRV & L:LP
# B4: Fab VH1-46_IGHD6-6*01_IGHJ1*01 S102A/S103P/S104F/H111F I51V/N52L/S54T/G56H (H:APFF VLTH) & L6_IGKJ1*01 S28N/S30D/S31H S52L/A55S (L:NDH LS) (Fab, V domains shown)
# VH: QVQLVQSGAEVKKPGASVKVSCKASGYTFTSYYMHWVRQAPGQGLEWMGIVLPTGHSTSYAQKFQGRVTMTRDTSTSTVYMELSSLRSEDTAVYYCAREEYAPFSAEYFQFWGQGTLVTVSS
# VL: EIVLTQSPATLSLSPGERATLSCRASQNVDHYLAWYQQKPGQAPRLLIYDALNRSTGIPARFSGSGSGTDFTLTISSLEPEDFAVYYCQQRSNWPPWTFGQGTKVEIKR
# notes: Fab; also called H:APFF VLTH & L:NDH LS
# B5: Fab VH3-23_IGHD2-21*01>3_IGHJ6*01 H100E/S108P/Y113G (EPG) Y109D & V2-13_IGLJ2*01 (Fab, V domains shown)
# VH: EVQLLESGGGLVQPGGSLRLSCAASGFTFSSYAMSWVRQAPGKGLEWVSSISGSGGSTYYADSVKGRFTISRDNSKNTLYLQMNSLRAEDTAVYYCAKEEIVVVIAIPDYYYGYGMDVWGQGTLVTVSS
# VL: SSELTQDPAVSVALGQTVRITCQGDSLRSYYASWYQQKPGQAPVLVIYGKNNRPSGIPDRFSGSSSGNTASLTITGAQAEDEADYYCNSRDSSGNHLVVFGGGTKLTVL
# notes: Fab; NNK mutant of the EPG heavy chain; CH1 (tags) and lambda CL come from the vectors
# B6: Fab VH3-23_IGHD2-21*01>3_IGHJ6*01 H100E/S108P/Y113G (EPG) Y109H & V2-13_IGLJ2*01 (Fab, V domains shown)
# VH: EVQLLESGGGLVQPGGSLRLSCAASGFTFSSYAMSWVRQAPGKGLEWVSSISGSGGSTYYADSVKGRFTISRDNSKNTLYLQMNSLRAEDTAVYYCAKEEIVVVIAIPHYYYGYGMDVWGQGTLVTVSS
# VL: B5 VL
# notes: as for B5
# B7: Fab VH3-23_IGHD2-21*01>3_IGHJ6*01 H100E/S108P/Y113G (EPG) Y109Q & V2-13_IGLJ2*01 (Fab, V domains shown)
# VH: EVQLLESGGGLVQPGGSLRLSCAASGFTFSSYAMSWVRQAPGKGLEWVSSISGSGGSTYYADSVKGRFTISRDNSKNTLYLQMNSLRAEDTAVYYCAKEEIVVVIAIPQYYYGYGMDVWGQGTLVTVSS
# VL: B5 VL
# notes: as for B5
# B8: Fab VH3-23_IGHD2-21*01>3_IGHJ6*01 H100E/S108P/Y113G (EPG) Y109T & V2-13_IGLJ2*01 (Fab, V domains shown)
# VH: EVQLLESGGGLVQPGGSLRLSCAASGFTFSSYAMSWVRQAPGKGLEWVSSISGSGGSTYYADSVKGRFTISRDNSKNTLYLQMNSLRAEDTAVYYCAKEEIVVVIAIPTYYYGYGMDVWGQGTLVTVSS
# VL: B5 VL
# notes: as for B5
# B9: Fab VH3-23_IGHD2-21*01>3_IGHJ6*01 H100E/S108P/Y113G (EPG) Y109L & V2-13_IGLJ2*01 (Fab, V domains shown)
# VH: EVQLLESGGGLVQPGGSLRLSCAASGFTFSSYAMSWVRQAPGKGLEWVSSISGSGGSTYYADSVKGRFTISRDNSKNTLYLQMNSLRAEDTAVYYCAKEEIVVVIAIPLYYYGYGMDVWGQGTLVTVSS
# VL: B5 VL
# notes: as for B5
# B10: Fab H:APFF LTH & L6_IGKJ1*01 S28N/S30D/S31H (NDH) (Fab, V domains shown)
# VH: B4 VH with V51I
# VL: B4 VL with L52S, S55A
# notes: Fab; also called H:APFF LTH & L:NDH
# B11: Fab H:APFF VLTH & L6_IGKJ1*01 S28N/S30D/S31H S52L/A55G (NDH LG) (Fab, V domains shown)
# VH: B4 VH
# VL: B4 VL with S55G
# notes: Fab; also called H:APFF VLTH & L:NDH LG
# B12: Fab H:APFF LTH & L6_IGKJ1*01 S28N/S30D/S31H S52L/A55G (NDH LG) (Fab, V domains shown)
# VH: B4 VH with V51I
# VL: B4 VL with S55G
# notes: Fab; also called H:APFF LTH & L:NDH LG
# B13: Fab H:APFF VLTH & L6_IGKJ1*01 S28N/S30D/S31H (NDH) (Fab, V domains shown)
# VH: B4 VH
# VL: B4 VL with L52S, S55A
# notes: Fab; also called H:APFF VLTH & L:NDH
# B14: Fab H:APFF LTH & L6_IGKJ1*01 S28N/S30D/S31H S52L/A55S (NDH LS) (Fab, V domains shown)
# VH: B4 VH with V51I
# VL: B4 VL
# notes: Fab; also called H:APFF LTH & L:NDH LS
# B15: Fab VH5-51_IGHD5-18*01>3_IGHJ4*01 G100K/G104T G24T/S28R/G35V & V3-4_IGLJ1*01 (Fab, V domains shown)
# VH: B1 VH
# VL: B1 VL
# notes: Fab; Constant parts come from Plasmid A (CH1, His6, Flag) and Plasmid E (lambda CL); also called H:KT TRV & L:wt; H:KT TRV & V3-4_IGLJ1*01
# B16: Fab VH5-51_IGHD5-18*01>3_IGHJ4*01 G100K/G104T G24T/S28R/G35V & V3-4_IGLJ1*01 V91L/S96P S52G (Fab, V domains shown)
# VH: B1 VH
# VL: B1 VL with S52G, V91L, S96P
# notes: Fab; Constant parts come from Plasmid A (CH1, His6, Flag) and Plasmid E (lambda CL); also called H:KT TRV & L:LP S52G
# B17: Fab VH1-46_IGHD6-6*01_IGHJ1*01 S102A/S103P/S104F/H111F I51V/N52L/S54T/G56H & L6_IGKJ1*01 S28N/S30D/S31H S52L/A55S (Fab, V domains shown)
# VH: B4 VH
# VL: B4 VL
# notes: Fab; Constant parts come from Plasmid A (CH1, His6, Flag) and Plasmid C (kappa CL); also called H:APFF VLTH & L:NDH LS
# Molecular target: T2, Recombinant Human DLL4 (R&D Systems Cat#1506-D4/CF) (human, UniProt Q9NR61 27-524)
# T2 construct: bought recombinant protein; also called rHuman DLL4; delta-like protein 4
# Assay: SPR
Binder,fold binding affinity against the parental Fab,fold binding affinity against the parent Fab
B1,130 fold,
B2,1000 fold,
B3,1000 fold,
B4,,430 fold

# Molecular target: T3, rHuman ErbB2/Fc Chimera, CF (R&D Systems Cat#1129-ER) (human, UniProt P04626 23-652)
# T3 construct: Bought recombinant protein; also called human epidermal growth factor 2 receptor; Fc part of the bought chimera not given
# Assay: ECL multispot (MSD), 20 nM Fab;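 further: purified Fab binding to antigens on multispot plates, read by electrochemiluminescence with a TAG-labelled detection antibody, 1 h Fab incubation at 20 °C, signal expressed relative to each well's blank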
row,Binder,ECL signal ratio (column head gives no unit)
1,B5,1.3
2,B6,1.7
3,B7,1.3
4,B8,1.7

# Molecular target: T4, rHuman EGF R/Fc Chimera, CF (R&D Systems Cat#344-ER) (human, UniProt P00533 25-645)
# T4 construct: Bought recombinant protein; also called epidermal growth factor receptor; Fc part of the bought chimera not given
# Assay: ECL multispot (MSD), 20 nM Fab;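 further: purified Fab binding to antigens on multispot plates, read by electrochemiluminescence with a TAG-labelled detection antibody, 1 h Fab incubation at 20 °C, signal expressed relative to each well's blank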
row,Binder,ECL signal ratio (column head gives no unit)
1,B5,1.4
2,B6,1.4
3,B7,1.7
4,B8,1.4

# Molecular target: T5, rHuman Notch-1/Fc Chimera, CF (R&D Systems Cat#3647-TK) (human, UniProt P46531 19-526)
# T5 construct: Bought recombinant protein; Fc part of the bought chimera not given
# Assay: ECL multispot (MSD), 20 nM Fab;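 further: purified Fab binding to antigens on multispot plates, read by electrochemiluminescence with a TAG-labelled detection antibody, 1 h Fab incubation at 20 °C, signal expressed relative to each well's blank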
row,Binder,ECL signal ratio (column head gives no unit)
1,B5,1.3
2,B9,1.9
3,B6,1.2
4,B7,1.3
5,B8,1.7

# Molecular target: T6, rHuman CD44/Fc Chimera, CF (R&D Systems Cat#3660-CD) (human, UniProt P16070 21-220)
# T6 construct: Bought recombinant protein; Fc part of the bought chimera not given
# Assay: ECL multispot (MSD), 20 nM Fab;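 further: purified Fab binding to antigens on multispot plates, read by electrochemiluminescence with a TAG-labelled detection antibody, 1 h Fab incubation at 20 °C, signal expressed relative to each well's blank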
row,Binder,ECL signal ratio (column head gives no unit)
1,B5,1
2,B9,1.6
3,B6,1.1
4,B7,1.3
5,B8,1.1

# Molecular target: T7, rHuman IGF-1 sR, (IGF-1 sR), CF (R&D Systems Cat#391-GR) (human, UniProt P08069 31-932)
# T7 construct: Bought recombinant soluble receptor; also called insulin-like growth factor-1 soluble receptor
# Assay: ECL multispot (MSD), 20 nM Fab
row,Binder,ECL signal ratio (column head gives no unit)
1,B5,1.4
2,B9,1.7
3,B6,1.2
4,B7,1.1
5,B8,1.3

# Molecular target: T8, rHuman P-Cadherin/Fc Chimera, CF (R&D Systems Cat#861-PC) (human, UniProt P22223 108-654)
# T8 construct: Bought recombinant protein; Fc part of the bought chimera not given
# Assay: ECL multispot (MSD), 20 nM Fab
row,Binder,ECL signal ratio (column head gives no unit)
1,B5,1.8
2,B9,4
3,B6,3.9
4,B7,2.2
5,B8,2.1

# Molecular target: T1, rHuman Erythropoietin R/Fc Chimera, CF …
# Assay: ECL multispot (MSD), 20 nM Fab
row,Binder,ECL signal ratio (column head gives no unit)
1,B5,2
2,B9,22.1
3,B6,18.3
4,B7,3.1
5,B8,6

# Molecular target: T9, Recombinant Human DLL4 (R&D Systems Cat#1506-D4/CF) (human, UniProt Q9NR61 27-524)
# T9 construct: Bought recombinant protein; also called delta-like protein 4; rHuman DLL4
# Assay: ECL multispot (MSD), 20 nM Fab
row,Binder,ECL signal ratio (column head gives no unit)
1,B5,1.4
2,B9,2
3,B6,1.4
4,B7,1.2
5,B8,1.5

# Molecular target: T2, Recombinant Human DLL4 (R&D Systems …)
# Assay: ELISA titration, 3-fold dilutions from 20 nM Fab
row,Binder,fold binding affinity against the antibody mutants with heavy chain H:APFF ALTH
1,B10,~10 fold
2,B4,~10 fold
3,B11,~10 fold
4,B12,~10 fold
5,B13,~10 fold
6,B14,~10 fold

# Molecular target: T10, full-length human DLL4 expressed on the surface of CHO cells (human, UniProt Q9NR61 26-685)
# T10 construct: also called CHO-DLL4; DLL4-expressing CHO cells
# Assay: competition, flow cytometry; 250 nM biotinylated Notch-Fc as competitor on CHO-DLL4 cells, streptavidin-PE
Binder,signal of biotinylated Notch-Fc bound to CHO-DLL4 cells at 2 nM Fab (read-out not given),signal of biotinylated Notch-Fc bound to CHO-DLL4 cells at 10 nM Fab (read-out not given)
B15,448,244
B16,250,190
B17,117,30
